# Source: patent US20180222975A1 (ELEVEN BIOTHERAPEUTICS, published 2018)
# Positions count from the first letter of the chain named.
# T1: dog IL-6 (dog, UniProt P41323 21-207, limits assumed)
# T1 construct: also called canine IL-6
# T1 sequence (looked up): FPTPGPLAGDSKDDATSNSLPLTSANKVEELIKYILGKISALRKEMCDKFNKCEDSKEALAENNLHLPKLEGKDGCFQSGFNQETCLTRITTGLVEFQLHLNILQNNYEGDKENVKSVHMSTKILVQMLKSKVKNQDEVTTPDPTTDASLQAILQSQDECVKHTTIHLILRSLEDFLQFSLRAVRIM
# T2: mouse IL-6 (mouse, UniProt P08505 25-211)
# T2 construct: also called rodent IL-6
# T2 sequence (looked up): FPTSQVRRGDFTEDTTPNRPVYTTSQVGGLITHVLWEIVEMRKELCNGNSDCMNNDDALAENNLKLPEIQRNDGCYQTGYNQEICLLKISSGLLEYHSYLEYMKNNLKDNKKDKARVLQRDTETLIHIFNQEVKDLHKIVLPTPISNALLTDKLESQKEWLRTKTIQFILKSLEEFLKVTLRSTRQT
# T3: rabbit IL-6 (rabbit, UniProt Q9MZR1 27-241, limits assumed)
# T3 sequence (looked up): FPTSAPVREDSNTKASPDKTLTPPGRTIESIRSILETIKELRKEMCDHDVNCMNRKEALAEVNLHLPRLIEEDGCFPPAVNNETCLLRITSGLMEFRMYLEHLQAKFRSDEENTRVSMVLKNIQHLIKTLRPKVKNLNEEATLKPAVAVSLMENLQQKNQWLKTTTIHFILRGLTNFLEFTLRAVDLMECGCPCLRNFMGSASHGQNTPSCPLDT
# T4: rat IL-6 (rat, UniProt P20607 25-211)
# T4 construct: also called rodent IL-6
# T4 sequence (looked up): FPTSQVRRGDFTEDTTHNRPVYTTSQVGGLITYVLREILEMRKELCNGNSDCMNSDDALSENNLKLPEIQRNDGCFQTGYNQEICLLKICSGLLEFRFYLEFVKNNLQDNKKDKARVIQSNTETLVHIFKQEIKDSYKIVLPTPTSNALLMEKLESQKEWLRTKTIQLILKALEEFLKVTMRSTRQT
# B1: 018 Fab (Fab, V domains shown)
# VH: QVQLVQSGAEVKKPGSSVKVSCKASGYALSNYLIEWVRQAPGQGLEWMGVITPGSGTINYAQKFQGRVTITADESTSTAYMELSSLRSEDTAVYYCARSRWDPLYYYALEYWGQGTTVTVSS
# VL: DIVMTQSPDSLAVSLGERATINCRASESVDNYGIPFMNWYQQKPGQPPKLLIYAASNRGSGVPDRFSGSGSGTDFTLTISSLQAEDVAVYYCQQSEEVPLTFGQGTKLEIKR
# notes: Fab with CK and IgG1 CH1 domains; also called Fab fragment of the h64-1,4 humanized antibody
# B2: h64 IgG (antibody, V domains shown)
# VH: B1 VH with L29F
# VL: DIVMTQSPDSLAVSLGERATINCRASESVDNYGISFMNWYQQKPGQPPKLLIYAASNQGSGVPDRFSGSGSGTDFTLTISSLQAEDVAVYYCQQSKEVPLTFGQGTKLEIK
# notes: also called original h64 antibody; original humanized molecule
# B3: murine 64 antibody (antibody, V domains shown)
# VH: QVQLQQSGAELVRPGTSVKVSCKASGYAFSNYLIEWVKQRPGQGLEWIGVITPGSGTINYNEKFKGKAVLTADKSSSTVYMQLSSLTSDDSAVYFCAKSRWDPLYYYALEYWGQGTSVTVSS
# VL: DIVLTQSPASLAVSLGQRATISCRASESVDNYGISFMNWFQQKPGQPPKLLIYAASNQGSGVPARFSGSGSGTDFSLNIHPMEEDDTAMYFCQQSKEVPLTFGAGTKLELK
# notes: Murine monoclonal; also called hybridoma 64; m64
# B4: chimeric murine 64 antibody (antibody, V domains shown)
# VH: B3 VH
# VL: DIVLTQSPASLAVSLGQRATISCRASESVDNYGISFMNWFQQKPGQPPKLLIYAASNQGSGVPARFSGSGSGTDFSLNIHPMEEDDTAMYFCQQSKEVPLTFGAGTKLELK
# notes: constant regions not described
# Key:
# [1] = molecular target: African green monkey IL-6 (African green monkey); assay: monovalent affinity
# dog IL-6 = molecular target: T1, dog IL-6; assay: monovalent affinity
# mouse IL-6 = molecular target: T2, mouse IL-6; assay: monovalent affinity
# rabbit IL-6 = molecular target: T3, rabbit IL-6; assay: monovalent affinity
# rat IL-6 = molecular target: T4, rat IL-6; assay: monovalent affinity
# human IL-6 [2] = molecular target: T5, human IL-6 (human, UniProt P05231 30-212); assay: affinity tested using the yeast system; original humanized h64, before affinity maturation; yeast system
# T5 construct: also called IL-6 (R&D Systems, cat# 206-IL/CF); biotinylated human IL-6
# human IL-6 [3] = molecular target: T5, human IL-6; assay: ELISA, hybridoma supernatant on plates coated with human IL-6
# Method: Hybridoma supernatants were screened for IL-6 binding and antagonism. For the binding ELISA, Costar 9018 plates were coated with 1 μg/mL human IL-6 in PBS overnight at 4° C. Wells were blocked with PBS containing 2% BSA, washed, and then incubated with 50 μL of each hybridoma supernatant diluted 1:2 with PBS containing 2% BSA. After 60 minutes, wells were washed three times with 300 μl PBS containing 0.1% Tween-20. Anti-mouse-HRP diluted 1:3000 in PBS-BSA was then added to each well and incubated for 30 minutes. Wells were washed as above then 3,3′,5,5′-tetramethylbenzidine (TMB) substrate was added and the signal measured at 450 and 550 nm. For antagonism studies, HEK-Blue™-IL6 reporter cells (InvivoGen. San Diego, Calif.) were incubated with increasing concentrations of human IL-6 in the presence of 1:10 diluted hybridoma supernatant. After 20-24 hours, 20 μl of supernatant was mixed with 180 μl QuantiBlue™ (InvivoGen) and the absorbance measured at 655 nm.
# human IL-6 [4] = molecular target: T5, human IL-6; assay: ELISA, blocking of IL-6/IL-6Rα complex binding to gp130
binder,measurement,setting,value
B1,Kd,[1],0.28 nM
same,Kd,dog IL-6,> 1000 nM
same,Kd,mouse IL-6,> 1000 nM
same,Kd,rabbit IL-6,> 1000 nM
same,Kd,rat IL-6,> 1000 nM
B2,Kd,human IL-6 [2],0.343 nM
B3,binding result,human IL-6 [3],binds
B4,binding result,human IL-6 [4],binds
